The values that follow come from US20210238296A1 (Genmab, published 2021).

For experiment [1], the target named is FCGR1AECDHis (monomeric extracellular domain of FcγRIA) (Homo sapiens (Human), UniProt P12314 16-292). Put plainly: ELISA, coated FCGR1AECD-His, 20 ug/mL antibody. A general note: In an ELISA, binding on a coated surface is turned into a signal by an enzyme label.
For experiment [2], the target named is T1, diFCGR2B-HisBAP (dimeric extracellular domain of FcγRIIB) (Homo sapiens (Human), UniProt P31994 44-223, C-terminally biotinylated).
T1 construct: dimeric, His-tagged, C-terminally biotinylated ECD
T1 sequence: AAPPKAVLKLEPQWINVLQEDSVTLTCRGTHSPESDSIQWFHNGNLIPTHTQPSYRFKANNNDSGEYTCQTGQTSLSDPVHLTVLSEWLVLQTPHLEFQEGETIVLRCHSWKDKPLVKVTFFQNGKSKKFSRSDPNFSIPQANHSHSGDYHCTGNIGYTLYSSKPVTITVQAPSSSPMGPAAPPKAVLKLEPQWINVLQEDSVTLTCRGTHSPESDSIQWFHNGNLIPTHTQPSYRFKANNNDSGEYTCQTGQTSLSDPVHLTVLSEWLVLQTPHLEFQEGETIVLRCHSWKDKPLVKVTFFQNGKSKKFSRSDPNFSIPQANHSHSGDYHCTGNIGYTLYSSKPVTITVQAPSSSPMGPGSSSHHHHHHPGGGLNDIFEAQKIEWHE
Briefly: ELISA, captured antibody, dimeric biotinylated FcγR ECD.

Experiment [3] concerns the target T2, diFCGR3AF-HisBAP (dimeric extracellular domain of FcγRIIIA allotype 158F) (C-terminally biotinylated).
T2 construct: dimeric, His-tagged, C-terminally biotinylated ECD; also called IIIA-158F
The experiment is described as above.

The target in experiment [4] is T3, diFCGR3AV-HisBAP (dimeric extracellular domain of FcγRIIIA allotype 158V) (C-terminally biotinylated).
T3 construct: dimeric, His-tagged, C-terminally biotinylated ECD; also called IIIA-158V
The description is as above.

Experiment [5] has as its target T4, diFCGR2AR-HisBAP (dimeric extracellular domain of FcγRIIA allotype 131R) (Homo sapiens (Human), UniProt P12318 36-215, C-terminally biotinylated).
T4 construct: dimeric, His-tagged, C-terminally biotinylated ECD; also called IIA-131R
T4 chain: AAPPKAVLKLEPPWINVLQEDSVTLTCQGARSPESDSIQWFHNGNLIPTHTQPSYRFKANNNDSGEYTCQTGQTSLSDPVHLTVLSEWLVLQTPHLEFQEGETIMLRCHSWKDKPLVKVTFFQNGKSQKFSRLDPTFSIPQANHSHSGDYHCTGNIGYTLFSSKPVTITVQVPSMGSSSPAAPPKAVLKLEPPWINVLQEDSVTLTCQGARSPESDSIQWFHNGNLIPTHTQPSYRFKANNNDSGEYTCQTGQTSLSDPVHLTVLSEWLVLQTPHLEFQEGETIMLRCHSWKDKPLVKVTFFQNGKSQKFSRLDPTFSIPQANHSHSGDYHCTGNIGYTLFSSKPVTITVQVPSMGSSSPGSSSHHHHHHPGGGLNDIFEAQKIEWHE
The experiment is described as above.

For experiment [6], the target named is T5, diFCGR2AH-HisBAP (dimeric extracellular domain of FcγRIIA allotype 131H) (Homo sapiens (Human), UniProt P12318 34-215, C-terminally biotinylated).
T5 construct: dimeric, His-tagged, C-terminally biotinylated ECD; also called IIA-131H
T5 sequence: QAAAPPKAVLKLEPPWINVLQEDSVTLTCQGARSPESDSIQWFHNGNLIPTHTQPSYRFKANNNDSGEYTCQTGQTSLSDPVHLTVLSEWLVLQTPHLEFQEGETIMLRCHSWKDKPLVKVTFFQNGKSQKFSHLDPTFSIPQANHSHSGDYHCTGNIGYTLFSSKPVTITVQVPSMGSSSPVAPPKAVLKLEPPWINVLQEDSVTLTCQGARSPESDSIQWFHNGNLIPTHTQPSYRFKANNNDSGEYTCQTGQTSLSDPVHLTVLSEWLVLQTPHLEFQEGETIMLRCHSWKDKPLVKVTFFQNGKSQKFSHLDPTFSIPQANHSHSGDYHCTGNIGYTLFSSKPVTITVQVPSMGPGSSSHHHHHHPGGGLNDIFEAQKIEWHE
The description is as above.

In experiment [7] the target is T1, diFCGR2B-HisBAP (dimeric extracellular …). Put plainly: FcγR ELISA, 20 ug/mL antibody.
Experiment [8] has as its target T4, diFCGR2AR-HisBAP (dimeric extracellular …). Put plainly: FcγR ELISA, 20 ug/mL antibody.
The target of experiment [9] is T5, diFCGR2AH-HisBAP (dimeric extracellular …). Briefly: FcγR ELISA, 20 ug/mL antibody.
The target in a further experiment is T6, C1q (human, UniProt P02745 23-245; P02746 28-253; P02747 29-245).
T6 construct: native C1q in 20% normal human serum, detected with rabbit anti-human C1q-FITC on antibody-opsonized Wien 133 cells; also called human C1q from normal human serum
Briefly: flow cytometry of C1q on antibody-opsonized Wien 133 cells, 20% NHS on ice.

In experiment [10] the target is T1, diFCGR2B-HisBAP (dimeric extracellular …). Briefly: ELISA, captured antibody 20 ug/mL, dimeric biotinylated FcγR ECD.
Experiment [11] has as its target T2, diFCGR3AF-HisBAP (dimeric extracellular …). The experiment is described as above.
Experiment [12] has as its target T3, diFCGR3AV-HisBAP (dimeric extracellular …). The experiment is described as above.
Experiment [13] addresses T4, diFCGR2AR-HisBAP (dimeric extracellular …). The description is as above.
Experiment [14] concerns the target T5, diFCGR2AH-HisBAP (dimeric extracellular …). The description is as above.

Substitutions are numbered along the chain they refer to. Numbers in names are those of the source.

Chain of FCGR1AECDHis (monomeric extracellular domain of FcγRIA) (P12314 other isoform, or with tags, fused parts or gaps limits assumed): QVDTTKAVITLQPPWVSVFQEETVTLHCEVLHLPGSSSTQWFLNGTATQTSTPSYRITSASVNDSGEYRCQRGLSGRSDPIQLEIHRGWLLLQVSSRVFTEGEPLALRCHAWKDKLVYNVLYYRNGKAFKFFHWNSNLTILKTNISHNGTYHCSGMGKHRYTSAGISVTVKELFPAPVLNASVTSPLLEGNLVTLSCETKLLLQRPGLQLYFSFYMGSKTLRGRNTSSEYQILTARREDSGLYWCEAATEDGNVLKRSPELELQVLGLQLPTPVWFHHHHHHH
T6 sequence (P02745 23-245 limits assumed, chain 1 of 3): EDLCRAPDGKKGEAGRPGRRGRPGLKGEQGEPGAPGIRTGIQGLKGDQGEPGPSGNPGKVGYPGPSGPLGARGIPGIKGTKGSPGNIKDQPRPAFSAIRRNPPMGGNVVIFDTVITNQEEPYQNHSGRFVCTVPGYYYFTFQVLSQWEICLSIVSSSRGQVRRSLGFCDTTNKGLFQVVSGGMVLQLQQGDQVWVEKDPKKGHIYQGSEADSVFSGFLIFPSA
T6 sequence (P02746 28-253 limits assumed, chain 2 of 3): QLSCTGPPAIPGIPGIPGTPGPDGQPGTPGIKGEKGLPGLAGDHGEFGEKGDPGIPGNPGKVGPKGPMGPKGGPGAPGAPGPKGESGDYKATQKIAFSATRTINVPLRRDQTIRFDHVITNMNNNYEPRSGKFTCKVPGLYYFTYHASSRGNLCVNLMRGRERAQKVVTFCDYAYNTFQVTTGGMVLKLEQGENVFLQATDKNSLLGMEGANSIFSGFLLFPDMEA
T6 sequence (P02747 29-245 limits assumed, chain 3 of 3): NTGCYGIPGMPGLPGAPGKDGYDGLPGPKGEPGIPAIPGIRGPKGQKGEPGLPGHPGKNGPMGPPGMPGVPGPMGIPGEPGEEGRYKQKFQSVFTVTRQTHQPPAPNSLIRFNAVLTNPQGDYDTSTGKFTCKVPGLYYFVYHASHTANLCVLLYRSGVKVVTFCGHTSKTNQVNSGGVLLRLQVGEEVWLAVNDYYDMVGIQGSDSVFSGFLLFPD

B1: IgG1-CAMPATH-1H-E430G-K439E-G236R (antibody)
heavy: QVQLQESGPGLVRPSQTLSLTCTVSGFTFTDFYMNWVRQPPGRGLEWIGFIRDKAKGYTTEYNPSVKGRVTMLVDTSKNQFSLRLSSVTAADTAVYYCAREGHTAAPFDYWGQGSLVTVSSASTKGPSVFPLAPSSKSTSGGTAALGCLVKDYFPEPVTVSWNSGALTSGVHTFPAVLQSSGLYSLSSVVTVPSSSLGTQTYICNVNHKPSNTKVDKRVEPKSCDKTHTCPPCPAPELLRGPSVFLFPPKPKDTLMISRTPEVTCVVVDVSHEDPEVKFNWYVDGVEVHNAKTKPREEQYNSTYRVVSVLTVLHQDWLNGKEYKCKVSNKALPAPIEKTISKAKGQPREPQVYTLPPSREEMTKNQVSLTCLVKGFYPSDIAVEWESNGQPENNYKTTPPVLDSDGSFFLYSKLTVDKSRWQQGNVFSCSVMHGALHNHYTQESLSLSPGK
light: not shown
notes: also called IgG1-CAMPATH-1H-G236R-E430G-K439E; IgG1-CAMPATH-E430G-K439E-G236R
As to B1, the binding result is listed as “binds” in [1]; “no binding (tested: 20 µg/mL)” in experiment [2]; “no binding (tested: 20 µg/mL)” in experiment [3]; “no binding (tested: 20 µg/mL)” in [4]; “no binding (tested: 20 µg/mL)” in experiment [5]; “no binding (tested: 20 µg/mL)” in experiment [6].

B2: IgG1-CAMPATH-1H-E430G-K439E-G237R (antibody)
heavy: B1 heavy with R240G, G241R
light: not shown
notes: also called IgG1-CD52-Campath-G237R-E430G-K439E
In the case of B2, in experiment [1], the binding result is “binds”.

B3: IgG1-CAMPATH-1H-E430G-K439E-K322A (antibody)
heavy: B1 heavy with R240G, K326A
light: not shown
notes: also called IgG1-CAMPATH-1H-K322A-E430G-K439E
For B3, the binding result in experiment [7], in experiment [8], in experiment [9] and in experiment [1] was “binds” each time.

B4: IgG1-CAMPATH-1H-E430G-K439E-G237T (antibody)
heavy: B1 heavy with R240G, G241T
light: not shown
notes: also called IgG1-CD52-Campath-G237T-E430G-K439E
As for B4, the binding result in experiment [1] is reported as “binds”; in experiment [2] it was “no binding (tested: 20 µg/mL)”; in experiment [3] it was “no binding (tested: 20 µg/mL)”; in experiment [4], “no binding (tested: 20 µg/mL)”; in [5], “no binding (tested: 20 µg/mL)”; in experiment [6] it was “no binding (tested: 20 µg/mL)”.

B5: IgG1-CAMPATH-1H-E430G-K439E-G237Q (antibody)
heavy: B1 heavy with R240G, G241Q
light: not shown
notes: also called IgG1-CD52-Campath-G237Q-E430G-K439E
Turning to B5, the binding result in [1] is “binds”.

B6: IgG1-11B8-E430G-S440K-E333S (antibody)
heavy: EVQLVQSGGGLVHPGGSLRLSCTGSGFTFSYHAMHWVRQAPGKGLEWVSIIGTGGVTYYADSVKGRFTISRDNVKNSLYLQMNSLRAEDMAVYYCARDYYGAGSFYDGLYGMDVWGQGTTVTVSSASTKGPSVFPLAPSSKSTSGGTAALGCLVKDYFPEPVTVSWNSGALTSGVHTFPAVLQSSGLYSLSSVVTVPSSSLGTQTYICNVNHKPSNTKVDKRVEPKSCDKTHTCPPCPAPELLGGPSVFLFPPKPKDTLMISRTPEVTCVVVDVSHEDPEVKFNWYVDGVEVHNAKTKPREEQYNSTYRVVSVLTVLHQDWLNGKEYKCKVSNKALPAPISKTISKAKGQPREPQVYTLPPSREEMTKNQVSLTCLVKGFYPSDIAVEWESNGQPENNYKTTPPVLDSDGSFFLYSKLTVDKSRWQQGNVFSCSVMHGALHNHYTQKKLSLSPGK
light: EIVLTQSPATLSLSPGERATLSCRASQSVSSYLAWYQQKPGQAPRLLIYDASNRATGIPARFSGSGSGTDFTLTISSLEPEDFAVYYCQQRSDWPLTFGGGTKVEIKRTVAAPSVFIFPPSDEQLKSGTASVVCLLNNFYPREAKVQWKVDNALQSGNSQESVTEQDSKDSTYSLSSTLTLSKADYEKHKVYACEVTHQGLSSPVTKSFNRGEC
notes: also called IgG1-11B8-E333S-E430G-S440K
As for B6, the binding result in the experiment with C1q was “binds”. Moreover, the “reduction of FcγR binding against IgG1-11B8-E430G-S440K” value in [10] is roughly 50%; in experiment [11], roughly 20%; in experiment [12], roughly 20%; in experiment [13] it was roughly 50%; in experiment [14], roughly 50%.

B7: IgG1-11B8-E430G-S440K-K326A (antibody)
heavy: B6 heavy with K334A, S341E
light: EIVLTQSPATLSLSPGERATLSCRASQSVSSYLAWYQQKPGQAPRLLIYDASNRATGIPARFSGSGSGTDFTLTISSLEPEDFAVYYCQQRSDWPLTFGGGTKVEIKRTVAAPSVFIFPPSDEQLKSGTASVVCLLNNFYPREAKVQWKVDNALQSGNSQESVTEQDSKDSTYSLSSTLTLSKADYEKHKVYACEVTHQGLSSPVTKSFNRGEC
notes: also called IgG1-11B8-K326A-E430G-S440K
In the case of B7, the binding result (in the experiment with C1q; in experiment [10]; in experiment [13]; in [14]) was “binds” throughout.
